Measured values published in paper PMC6743330.

Biological target: PtmU3 (Streptomyces platensis CB00739)
Assay: SEC

stoichiometry N: 2
Substance: PtmU3 (enzyme)
